Measurements taken from publication PMC3178552.

What was measured:
[1] = biological target: vesicular stomatitis virus nucleoprotein lacking its 21 N-terminal residues (N[change]), MBP tag removed (vesicular stomatitis virus) (UniProt P03521); test: crystal structure
[2] = biological target: vesicular stomatitis virus nucleoprotein lacking its 21 N-terminal residues (N[change]), MBP tag removed (vesicular stomatitis virus) (UniProt P03521); test: SEC-MALS

| Substance | stoichiometry N [1] | stoichiometry N [2] |
| --- | --- | --- |
| vesicular stomatitis virus nucleoprotein lacking its 21 N-terminal residues (N[change]), MBP tag removed (from UniProt P03521 22-422) (domain or fragment) | 10 |  |
| P60: the first 60 amino acids of VSV phosphoprotein P, a two-amino acid linker and a C-terminal His6-tag (from UniProt P03520 1-60) (peptide) |  | 1 |
